Columns and labels:
[1] = hBChE in blood by ELISA, nude mice grafted with human skin organoids
[2] = cocaine hydrolysis; cited from earlier work
[3] = system: mouse epidermal stem cells; assay: Cell proliferation and differentiation of engineered mouse epidermal cells in vitro (cell cycle FACS, calcium shift western blot); assay type: cell-based
Procedure: Primary human neonatal epidermal keratinocytes were obtained from Thermo Fischer® (C0015C), and cultured with Epilife® medium (Thermo Fischer, M-EPICF-500) with manufacturer's recommended procedures. Calcium shift was performed to induce differentiation of primary keratinocytes by increasing the calcium concentration in culture media to 1.5 mM.
Propidium iodide (PI) staining followed by flow cytometry were used to determine the effect of cell cycle profiles. Mouse and human epidermal cells were cultured in two 6 cm cell culture dish for 24 hours, respectively. Cells were trypsinized, and 1×10^5 cells from each dish were collected, followed by one PBS wash. […] After staining, the cells were analyzed immediately using flow cytometer BD FACSCanto™ II (BD Biosciences, San Jose, CA) with an excitation wavelength at 488 nm and emission at 585 nm. DNA content and histograms of cell cycle distribution were analyzed using FlowJo™ software, version 10 (FLOWJO LLC, OR).
Western blotting was performed as described previously (Blanpain et al.). […] Visualization and quantification was carried out with the LI-COR Odyssey® scanner and software (LI-COR Biosciences).
Propidium iodide (PI) staining followed by flow cytometry were used to determine the effect of cell cycle profiles. […] DNA content and histograms of cell cycle distribution were analyzed using FlowJo™ software, version 10 (FLOWJO LLC, OR). […]

B1: hBChE: modified human butyrylcholinesterase (E30-6, SEQ ID NO: 41), cocaine hydrolase, expressed from engineered epidermal cells / skin grafts (protein)
chain: MHSKVTIICIRFLFWFLLLCMLIGKSHTEDDIIIATKNGKVRGMNLTVFGGTVTAFLGIPYAQPPLGRLRFKKPQSLTKWSDIWNATKYANSCCQNIDQSFPGFHGSEMWNPNTDLSEDCLYLNVWIPAPKPKNATVLIWIYGGGFQTGTSSLHVYDGKFLARVERVIVVSMNYRVGALGFLALPGNPEAPGNMGLFDQQLALQWVQKNIAAFGGNPKSVTLFGESSGAASVSLHLLSPGSHSLFTRAILQSGSANAPWAVTSLYEARNRTLNLAKLTGCSRENETEIIKCLRNKDPQEILLNEAFVVPYGTALGVNFGPTVDGDFLTDMPDILLELGQFKKTQILVGVNKDEGTWFLVGGAPGFSKDNNSIITRKEFQEGLKIFFPGVSEFGKESILFHYTDWVDDQRPENYREALGDVVGDYNFICPALEFTKKFSEWGNNAFFYYFEHRSSKLPWPEWMGVMHGYEIEFVFGLPLERRDNYTKAEEILSRSIVKRWANFAKYGNPNETQNNSTSWPVFKSTEQKYLTLNTESTRIMTKLRAQQCRFWTSFFPKVLEMTGNIDEAEWEWKAGFHRWNNYMMDWKNQFNDYTSKKESCVGL
modifications: Human mutant BChE
duration of stable hBChE expression in vivo ([1]; human grafts): more than 8 weeks | level of human BChE in the blood ([1]; human hBChE-expressing grafts): significantly levels of human BChE in the blood | catalytic efficiency (kcat/KM) relative to wild-type (WT) hBChE [2]: more than 4400 times | effect of expression on cell proliferation / differentiation in vitro [3]: did not significantly change cell proliferation

Source: patent US20230392126A1, “TISSUE ORGANOIDS” (priority 2016, published 2023)
